Values of other authors as cited in PMC3158961.
pKd: −log10 of the molar value. Where two headings read alike, the source gives them in different places.

What was measured:
CEP55 (Homo sapiens) [1] = target: CEP55 (Homo sapiens) (UniProt Q53EZ4)
CEP55 (Homo sapiens) [2] = target: CEP55 (Homo sapiens) (UniProt Q53EZ4); remark: listed apart in the source
Nedd4 WW3 = Nedd4 WW3 (UniProt P46934)
Sequence of UniProt P46934 (P46934 840-873): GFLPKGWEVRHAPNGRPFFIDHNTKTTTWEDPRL

Sequence of UniProt Q53EZ4 (Q53EZ4 whole entry): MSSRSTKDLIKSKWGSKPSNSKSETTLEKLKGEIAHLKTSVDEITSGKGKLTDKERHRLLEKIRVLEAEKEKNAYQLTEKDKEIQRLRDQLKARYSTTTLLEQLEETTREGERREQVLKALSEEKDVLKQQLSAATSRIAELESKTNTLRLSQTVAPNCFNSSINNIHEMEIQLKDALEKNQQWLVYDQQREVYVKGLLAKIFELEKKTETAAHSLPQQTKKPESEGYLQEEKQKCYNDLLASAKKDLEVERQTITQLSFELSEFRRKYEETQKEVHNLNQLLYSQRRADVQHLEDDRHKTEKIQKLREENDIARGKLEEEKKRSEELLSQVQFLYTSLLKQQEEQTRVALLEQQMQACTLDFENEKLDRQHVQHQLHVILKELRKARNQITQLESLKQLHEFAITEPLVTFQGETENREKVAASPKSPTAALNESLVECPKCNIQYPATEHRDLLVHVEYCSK

In the case of “TSG101 GPPX3Y peptide (from UniProt Q99816)”, the pKd (CEP55 (Homo sapiens) [1]) is given as 6.00.

In the case of “ALIX GPPX3Y peptide (from UniProt Q8WUM4)”, the pKd (CEP55 (Homo sapiens) [2]) is given as 6.00.

For “ENaC β subunit PPXY peptide (from UniProt P51168)”, the pKd (Nedd4 WW3) is listed as 4.70.
